First the molecules themselves.
B1: NHBA_(312-427) (Neisserial heparin binding antigen, peptide 20, residues M312-D427) [Neisseria meningitidis (strain 2996)] / Fab 5H2 (Fab derived from the vaccine-elicited human monoclonal antibody 5H2) [human] (parent complex)
chain 1: MLAGTAVYNGEVLHFHTENGRPYPTRGRFAAKVDFGSKSVDGIIDSGDDLHMGTQKFKAAIDGNGFKGTWTENGGGDVSGRFYGPAGEEVAGKYSYRPTDAEKGGFGVFAGKKEQD
chain 2: not shown
chain 3: EIVMTQTPSSLSASVGDRVTITCRASQSISNYLNWYQQKPGTAPKLLTYAASSLGSGVPSRFSGSGSGTDLTLTISSLRPEDFATYYCQQSYGSPTFGQGTKLEIRRTVAAPSVFIFPPSDEQLKSGTASVVCLLNNFYPREAKVQWKVDNALQSGNSQESVTEQDSKDSTYSLSSTLTLSKADYEKHKVYACEVTHQGLSSPVTKSFNRGEC

The variants in the experiment derive from B1. Description: SPR; Fab 5H2 captured on sensor chip, NHBA312-427 mutant injected; response read at end of injection (~48 s); read off a plot.
For chain 1 K56A, the response is approximately 58 RU.
chain 1 E11A, chain 1 E114A: the response was approximately 51 RU.
The result for chain 1 D49A, chain 1 T54A reads approximately 42 RU; that for chain 1 R28A, chain 1 K56A, approximately 3 RU; that for chain 1 R28G, approximately 30 RU.
The figure for chain 1 R28A is approximately 2 RU.
The figure for chain 1 R28G, chain 1 K56A is approximately 5 RU.

The values above are taken from PMC6104945 (2018).
